# Laboratory results reported in paper PMC7572768 (Biochemistry, 2020).
# Numbering of substitutions follows the chain as printed.
# B1: Fab 3E2 (Fab, V domains shown)
# VH: EVQLVESGGGLVQPGGSLRLSCAASGFNIYYYSIHWVRQAPGKGLEWVASIYPYSSYTYYADSVKGRFTISADTSKNTAYLQMNSLRAEDTAVYYCARGIKGLVFTGSQMKMLRRGNYNWYVMDYWGQGTLVTVSS
# VL: DIQMTQSPSSLSASVGDRVTITCRASQSVSSAVAWYQQKPGKAPKLLIYSASSLYSGVPSRFSGSRSGTDFTLTISSLQPEDFATYYCQQSSYSLITFGQGTKVEIK
# B2: Fab 3E9 (Fab, V domains shown)
# VH: EVQLVESGGGLVQPGGSLRLSCAASGFNLYYSSMHWVRQAPGKGLEWVASIYPSYGSTYYADSVKGRFTISADTSKNTAYLQMNSLRAEDTAVYYCARNGRYPGFLKRAHKRLLNFKAYVMDYWGQGTLVTVSS
# VL: B1 VL with S91G, Y93W, S94Y
# B3: Fab 2B5 (Fab, V domains shown)
# VH: EVQLVESGGGLVQPGGSLRLSCAASGFNLSYSSMHWVRQAPGKGLEWVASIYPYSGYTYYADSVKGRFTISADTSKNTAYLQMNSLRAEDTAVYYCARIGVNAWAVKMSQRMLATRGSGWYVMDYWGQGTLVTVSS
# VL: DIQMTQSPSSLSASVGDRVTITCRASQSVSSAVAWYQQKPGKAPKLLIYSASSLYSGVPSRFSGSRSGTDFTLTISSLQPEDFATYYCQQSSSYPYSPITFGQGTKVEIK
# How the values were obtained:
# Assay in all cases: ELISA
# cdMMP-14 F198A = cdMMP-14 F198A (Homo sapiens, UniProt P50281, F198A)
# [1] = target: cdMMP-14 P259 alanine mutant (Homo sapiens, UniProt P50281, P259 to Ala)
# cdMMP-14 F260A = cdMMP-14 F260A (Homo sapiens, UniProt P50281, F260A)
# cdMMP-14 N231A = cdMMP-14 N231A (Homo sapiens, UniProt P50281, N231A)
binder,measurement,setting,value
B1,IC50,cdMMP-14 F198A,> 900 nM
same,IC50,[1],> 900 nM
B2,fold increase in IC50 against cdMMP-14 wt,cdMMP-14 F260A,33 fold
B3,fold weakening of IC50 against cdMMP-14 wt,cdMMP-14 N231A,14 fold
